The values that follow are results of earlier work, collected in article PMC3535496.

As a reminder, the Kd is the concentration at which binding is half-saturated.

For the data set, the target named is Jun TAD (Homo sapiens) (UniProt P05412).
Chain of UniProt P05412 (P05412 47-89): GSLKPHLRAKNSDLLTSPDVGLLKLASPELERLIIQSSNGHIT

On to CBP KIX (from UniProt Q92793), for which the Kd is 30 µM.
